Reference: patent US20250145684A1 (IMMATICS BIOTECHNOLOGIES, published 2025)

Target: T1, HLA-B*08:01 (human)
T1 construct: MHC monomer first loaded with a UV-sensitive peptide that is cleaved by UV light and exchanged for the test peptide
Assay: UV peptide exchange ELISA
Description: Candidate peptides for T cell based therapies according to the present invention were further tested for their MHC binding capacity (affinity). The individual peptide-MHC complexes were produced by UV-ligand exchange, where a UV-sensitive peptide is cleaved upon UV-irradiation and exchanged with the peptide of interest as analyzed. Only peptide candidates that can effectively bind and stabilize the peptide-receptive MHC molecules prevent dissociation of the MHC complexes. To determine the yield of the exchange reaction, an ELISA was performed based on the detection of the light chain (β2m) of stabilized MHC complexes. The assay was performed as generally described in Rodenko et al. (Rodenko et al., 2006).
96 well MAXISorp plates (NUNC) were coated over night with 2 ug/ml streptavidin in PBS at room temperature, washed 4× and blocked for 1 h at 37° C. in 2% BSA containing blocking buffer. Refolded HLA-A*02:01/MLA-001 monomers served as standards, covering the range of 15-500 ng/ml. Peptide-MHC monomers of the UV-exchange reaction were diluted 100-fold in blocking buffer. Samples were incubated for 1 h at 37° C., washed four times, incubated with 2 ug/ml HRP conjugated anti-β2m for 1 h at 37° C., washed again and detected with TMB solution that is stopped with […]. Absorption was measured at 450 nm. Candidate peptides that show a high exchange yield (preferably higher than 50%, most preferred higher than 75%) are generally preferred for a generation and production of antibodies or fragments thereof, and/or T cell receptors or fragments thereof, as they show sufficient avidity to the MHC molecules and prevent dissociation of the MHC complexes.

Binder | peptide exchange yield
LPAPIPTLL [LPAPIPTLL (SEQ ID NO: 164)] | 20 to 50%
YELNNLHAL [YELNNLHAL (SEQ ID NO: 169)] | 20 to 50%
HVQDFTAF [HVQDFTAF (SEQ ID NO: 168)] | 20 to 50%
LFKQTKINL [LFKQTKINL (SEQ ID NO: 162)] | 20 to 50%
FPSQVPKQVL [FPSQVPKQVL (SEQ ID NO: 171)] | 20 to 50%
LAVPIFVAL [LAVPIFVAL (SEQ ID NO: 180)] | 20 to 50%
YPLLKDPSL [YPLLKDPSL (SEQ ID NO: 173)] | 50 to 75%
MRSSYIREL [MRSSYIREL (SEQ ID NO: 150)] | 20 to 50%
IPFIHLPEI [IPFIHLPEI (SEQ ID NO: 199)] | 20 to 50%
EIMEKTTL [EIMEKTTL (SEQ ID NO: 188)] | 20 to 50%
VLSGGRILAL [VLSGGRILAL (SEQ ID NO: 166)] | 20 to 50%
VPYNSVLF [VPYNSVLF (SEQ ID NO: 187)] | 20 to 50%
HAIPHYVTM [HAIPHYVTM (SEQ ID NO: 153)] | 20 to 50%
QPNTHQLL [QPNTHQLL (SEQ ID NO: 210)] | 20 to 50%
QPYRFPQA [QPYRFPQA (SEQ ID NO: 157)] | 20 to 50%
FNKLVTEL [FNKLVTEL (SEQ ID NO: 152)] | 20 to 50%
VAAARAVPV [VAAARAVPV (SEQ ID NO: 200)] | 20 to 50%
HAMPSPRIL [HAMPSPRIL (SEQ ID NO: 174)] | 20 to 50%
LPLTEHEL [LPLTEHEL (SEQ ID NO: 179)] | 50 to 75%
ELLNRIYF [ELLNRIYF (SEQ ID NO: 190)] | 20 to 50%
RIPEKASFL [RIPEKASFL (SEQ ID NO: 202)] | 20 to 50%
VLKTLQEL [VLKTLQEL (SEQ ID NO: 154)] | 20 to 50%
LPPPQPLSL [LPPPQPLSL (SEQ ID NO: 208)] | 20 to 50%

Binder | peptide exchange yield
LDLRQKVL [LDLRQKVL (SEQ ID NO: 196)] | 20 to 50%
SIRSSYSRF [SIRSSYSRF (SEQ ID NO: 181)] | 20 to 50%
LGGLRLTAL [LGGLRLTAL (SEQ ID NO: 193)] | 20 to 50%
IPRLAVISI [IPRLAVISI (SEQ ID NO: 178)] | 20 to 50%
DLRNKIIA [DLRNKIIA (SEQ ID NO: 159)] | 20 to 50%
LLILKTVL [LLILKTVL (SEQ ID NO: 17)] | 50 to 75%
ILKEQSSSSF [ILKEQSSSSF (SEQ ID NO: 156)] | 20 to 50%
LLKKIEHA [LLKKIEHA (SEQ ID NO: 15)] | 20 to 50%
RAIEHVLQV [RAIEHVLQV (SEQ ID NO: 194)] | 50 to 75%
DVYTQVSAF [DVYTQVSAF (SEQ ID NO: 203)] | 20 to 50%
LSLVRKAL [LSLVRKAL (SEQ ID NO: 18)] | 50 to 75%
MSPLLRSI [MSPLLRSI (SEQ ID NO: 204)] | 20 to 50%
YVSKPGAQL [YVSKPGAQL (SEQ ID NO: 183)] | 20 to 50%
DLISPRQPRL [DLISPRQPRL (SEQ ID NO: 186)] | 20 to 50%
ILKRFLAC [ILKRFLAC (SEQ ID NO: 20)] | 50 to 75%
MEFPNKFNTL [MEFPNKFNTL (SEQ ID NO: 206)] | 20 to 50%
DVIIKGNGL [DVIIKGNGL (SEQ ID NO: 158)] | 20 to 50%
LRKRKSPE [LRKRKSPE (SEQ ID NO: 207)] | 20 to 50%
QNSLRHNL [QNSLRHNL (SEQ ID NO: 165)] | 20 to 50%
PYEKVSRL [PYEKVSRL (SEQ ID NO: 172)] | 20 to 50%
NRKPRTPF [NRKPRTPF (SEQ ID NO: 16)] | 20 to 50%
EVMAQFKEI [EVMAQFKEI (SEQ ID NO: 163)] | 20 to 50%
SVPVRSSPL [SVPVRSSPL (SEQ ID NO: 177)] | 20 to 50%

Binder | peptide exchange yield
MELKTVKPI [MELKTVKPI (SEQ ID NO: 185)] | 20 to 50%
FPLTSIIAI [FPLTSIIAI (SEQ ID NO: 198)] | 50 to 75%
DRLKPLKM [DRLKPLKM (SEQ ID NO: 184)] | 20 to 50%
QIMPKAGL [QIMPKAGL (SEQ ID NO: 2)] | 50 to 75%
SRFGKFVQL [SRFGKFVQL (SEQ ID NO: 209)] | 20 to 50%
TASAMQHVL [TASAMQHVL (SEQ ID NO: 201)] | 50 to 75%
YVIQRQSVL [YVIQRQSVL (SEQ ID NO: 176)] | 20 to 50%
EEKHFTTL [EEKHFTTL (SEQ ID NO: 192)] | 20 to 50%
FTLLRRLSL [FTLLRRLSL (SEQ ID NO: 19)] | 50 to 75%
SPANVRGQSL [SPANVRGQSL (SEQ ID NO: 170)] | 20 to 50%
EGNQKSVI [EGNQKSVI (SEQ ID NO: 195)] | 20 to 50%
DIVPPFSAF [DIVPPFSAF (SEQ ID NO: 161)] | 20 to 50%
LPASFPAVL [LPASFPAVL (SEQ ID NO: 155)] | 20 to 50%
RPLKPGEVL [RPLKPGEVL (SEQ ID NO: 191)] | 20 to 50%
ILHLSAIAL [ILHLSAIAL (SEQ ID NO: 182)] | ≥ 75%
MRFQQFLFA [MRFQQFLFA (SEQ ID NO: 175)] | 10 to 20%
YKAYPSQL [YKAYPSQL (SEQ ID NO: 197)] | 20 to 50%
DRHLTNRVL [DRHLTNRVL (SEQ ID NO: 151)] | 20 to 50%
DMKITVSL [DMKITVSL (SEQ ID NO: 167)] | 50 to 75%
APDNVLLTL [APDNVLLTL (SEQ ID NO: 189)] | 20 to 50%
YMQYGFLSM [YMQYGFLSM (SEQ ID NO: 205)] | 20 to 50%
LPINNTHI [LPINNTHI (SEQ ID NO: 160)] | 20 to 50%
